Laboratory results taken from the DeepSol protein solubility set.

Assay: soluble on expression in E. coli; label from the status in PepcDB or PDB records

| Sequence | soluble on expression in E. coli |
| --- | --- |
| MSLDTDSGENNKDSSIPQGGVTVSPEVLAHRPLIEKYGKEYGIEDYVSYILAIMQVESGGTAEDVMQSSESLGLPPNSLSTEESIKQGVKYFSELLTSAEQQGVDIDSVIQSYNYGGGFLNYVRSHGKKYTYELAEQFSKEKSGGQKADYPNPIAIPVNGGWRYNYGNQFYVQLVSQYLTDTSPTEFDDETVQVIMDEALKYEGFPYVFGGASPTTSFDCSGLIQWVYDKAGISLPRVAQDQYDATQEISMEEAQAGDLIFFHSTYNAGTYVTHVAIYLEGNRFYHAGDPIGYGDLSSRYWQDHLIGARRVIHNEGHHHHHH | soluble |
| MSLEEIETDVLVIGGGPGGMSAAINAGKYGAKVLLVDENPFLGGQLVKQTHRFFGSAKERAGTRGIKIAGILEEELNSIENVEVRRETRVFGIYNGEAGAYQRLNDDEGKLLRIKAKKIVVATGAYERTLIFENNDLPGVYGAGGVQTLMNVYGIKPGNMGLIVGSGNVGLILTYQLMQAGVNVAAIVEAMPRIGGYFVHAAKVRRLGVPIYVRHTILKAIGRKSVEGAVIAQLDDRWQPIPGTEKEIKCDFICVAVGLSPTHELLYQAGCEMKFVPELGGIVPLRTRFNETSVKGLYVAGDVAGIEEATAAIMEGRIAGIHAAVTLGYGGEEAKKELDEAVKEIEEFRAGPFGERIVCGLEKCTLESEGHHHHHH | soluble |
| MSLEEQREILEQLKKTLQMLTVEPSKNNQIANEEKEKKENENSWCILEHNYEDIAQEFIDFIYKNPTTYHVVSFFAELLDKHNFKYLSEKSNWQDSIGEDGGKFYTIRNGTNLSAFILGKNWRAEKGVGVIGSHVDALTVKLKPVSFKDTAEGYGRIAVAPYGGTLNELWLDRDLGIGGRLLYKKKGTNEIKSALVDSTPLPVCRIPSLAPHFGKPAEGPFDKEDQTIPVIGFPSPDEEGNEPPTDDEKKSPLFGKHCIHLLRYVAKLAGVEVSELIQMDLDLFDVQKGTIGGIGKHFLFAPRLDDRLCSFAAMIALICYAKDVDTEESELFSTVTLYDNEEIGSLTRQGAKGGLLESVVERSSSAFTKKAVDLHTVWANSIILSADVNHLYNPNFPEVYLKNHFPVPNVGITLSLDPNGHMATDVVGTALVEELARRNGDKVQYFQIKNNSRSGGTIGPSLASQTGARTIDLGIAQLSMHSIRAATGSKDVGLGVKFFNGFFKHWRSVYDEFGELEGHHHHHH | soluble |
| MSLEEVIEQLREANEPVPVPLELPDEDQLVEIEEQLFINIPFVFKEFLLTVSDVVYGSLEPVTVTDPQSHTYLPEVCATAWDLGVPRELIPICQDGEDYYCVEEDGTVLLWSAEEELVTEESWESVWHWARDVWLESEGHHHHHH | soluble |
| MSLEFFMAKADNPAFEQGQSPRMRLPDSVPLLIVGGGIMGLWAAVKAERLGIGTLLVEAGRLGGGASGGLLGALMPHMPDRWSDKKQFQFDALVALEAEIAGLEAETGLSGGYRRCGRIIPLPKPHLRGIAERHERDAAENWRSGERRFQWHVGERPSVAGWVDDAAGEAGFVFDTLAARVSPRALIALLSAFLRKARHVQVAEGCRVVSLDADAGRAALSSGEEISFGHVVVANGHESFPLIRDALGLEAGVALGQAVKGQAALLDASADPAMPVVFLNGLYIVPHEDGTVAIGSTSEDCFSEPFSTDEKLEKLLVDACTVVPSLAGAPVLERWAGLRPKAVGRDPMVGAMAGTAKLVALSGGFKVSFGLAHFLADAALETVCGHTPVIPSGFRLQEHVSIAVPDFRKFLEHHHHHH | not soluble |
| MSLEGYTVIIKTGNEDLDRRLTGLPFPALIMIEGDHGTGKSVLAAQICYGLLISDKKGYVITTEQTTKDYLVKMRDVKINLIPFFIKGSLGVAPLNTNKFNWNSDLANKILDLIIDFVKKRKNIEFLIIDSLSVLATFAEERQILQFMKESRVLVDLGKLILFTIHPDVFSEEIKSRITSIVDVYFKLSAVTIGGRRIKVLERVKTVGGIQGSDTISFDIDPALGIKVIPLSLSRAEGHHHHHH | soluble |
| MSLEIIKTGLAAFGMSGQVFHAPFISTNPHFELYKIVERSKELSKERYPQASIVRSFKELTEDPEIDLIVVNTPDNTHYEYAGMALEAGKNVVVEKPFTSTTKQGEELIALAKKKGLMLSVYQNRRWDADFLTVRDILAKSLLGRLVEYESTFARYRNFIKPNTWKETGESGGGLTYNLGSHLIDQAIQLFGMPEAVFADLGILREGGKVDDYFIIHLLHPSLAPNVKITLKASYLMREAEPRFALHGTLGSYVKYGVDKQEAALLAGEIPERPNWGEESEQEWGLLHTEINGKEICRKYPGIAGNYGGFYQNIYEHLCLGQPLETHAQDILNVIRIIEAAYQSHRENKIVNLKEGHHHHHH | soluble |
| MSLEKLKSTEFYASQIKHCFTIPSRTAKYKGLCFELAPEVYQGMEHENFYSHQADAINSLHQGENVIITTSTSSGKSLIYQLAAIDLLLKDPESTFMYIFPTKALAQDQKRAFKVILSKIPELKNAVVDTYDGDTEPEERAYIRKNARVIFTNPDMIHTSILPNHANWRHFLYHLKLVVVDELHIYKGLFGSHVALVMRRLLRLCHCFYENSGLQFISCSATLKSPVQHMKDMFGINEVTLIHEDGSPTGAKHLVVWNPPILPQHERKRENFIRESAKILVQLILNNVRTIAFCYVRRVCELLMKEVRNIFIETGREDLVTEVMSYRGGYSASDRRKIEREMFHGNLKAVISTNALELGIDIGGLDAVLMCGFPLSMANFHQQSGRAGRRNNDSLTLVVASDSPVDQHYVAHPESLLEVNNFESYQDLVLDEGHHHHHH | not soluble |
| MSLEKLTVSDSKKLFHEQFPYVIPGLYKRIVDEMLVELNLLNHQNEFIQDDLFCVGLTETFKELTKGYKPEEHLRVLFESLCNSSNFEPKKIKEASKKTLEVYKDKSLKEISILLKQKSDSNLYSSRIMNLGIYLIIANATDFKDIKDPEKNKIISDIINKLNLSFNKAEKDIGIYKSSILKMEQAKELLQEAKIKDKKEKEGHHHHHH | soluble |
| MSLEKTKLPWDEFFSLNKDINHTYFTPEDFSGDEDLIAKTTEQFVKQEIVPQMENIEQHNYKVSRQLFEKAGELGLLGIEVPEDYGGFELGKAVSGLVAEKMGYAGAFSVSFNIHAGVGTLPYIYYGTKEQKEKYLPKIASGEWIGAYALTEPNAGSDALSAKTSAVLNEEGTAWKLNGEKQWITNAHMADVYVVFAKTNKGMTAFIVERTCEGVSIGLEEKKMGIKGSSTATLILEDVVIPAENVLGEVGKGHHVALNILNFARLKLAFGNIGTAKQAIGLSVQYGKERKQFQTELVDFTMIQEKIANMIIATYGAESAAYRTAGVIDEAIHESDEDLMKKMSQFAIECALNKVNASETLAYIVDEAVQIHGGYGYMQEYEVERLYRDARISRIFEGTNEINRLTVAKMLMKQIEQLEEGHHHHHH | not soluble |
| MSLEKVIPVKKNNDYEIYIDDFGNMGEGIGKIDNFTVFVKDAVKGEKVRAKIIKVNKSFAIGKLIDIIEKSQDRTEPVCSIYKKCGGCQLQHLKYTEQLEFKKNKVVECLKRIGKLDLSSVRINETIGMEDPYFYRNKVQLPVGETAGEAKIGFYRERSHEIIEVDKCFIQDDSANEIILLIKRWIKEFNIEGYNEYSGKGTLRHIMIRKAFKTGQIMLVLVTNTENVPHKKELIHMITTEIQGIKGIIQNINNKKTNVILGQREITLWGESTIEDYIGEFKFNISSKSFFQVNPIQTEKLYSAALKYAGLTGKEVVFDAYCGTGTISLFLSQNAKKVYGVEIIPEAIENAKINAKQNGIENTEFIVGKSEEEIPKLIEKGIAPEVVVVDPPRKGCEKSLLHSIAEASPKTIVYVSCDPATLSRDLGILSELGYEVNEVQPVDMFPMTGHVETIVLIKRVDKEGHHHHHH | soluble |
| MSLELNGRALSSTIAPRTQAQRILQTQKISSTDLVVVIGLGNPHLIFEVHKSLEPGQVLLLVDEYPELIFPLWDGILEPVMDVPGRHLFLGHSALNLLWNYLESLPVERVSGIRVFRNTASTALNETYYSDLEIKIRKILSSKMSDLLTKFEFERIWVRNTFVNTANFPDSKNPRTRIESLKGKFLDTPAMLVSAGPSLRSQCEWISKVRDKVFLFSCDTSFKALLKFGIVPDGVITLDAQTHSFFHFMGAESSNVPLFADLVSSPSILRSQKFTKIVHSLSAKYVVDASGEFKREVTAGSKTAEKLLGPIGDIQSGGSVATTAFDLLRNLGCKPIFLVGQDLAYSGREEGHHHHHH | not soluble |
| MSLELPFSNQSIIPAAHNQKDMEKILELDLTYMVMLETHVAQLKALVKYAQAGGKKVLLHADLVNGLKNDDYAIDFLCTEICPDGIISTRGNAIMKAKQHKMLAIQRLFMIDSSAYNKGVALIQKVQPDCIELLPGIIPEQVQKMTQKLHIPVIAGGLIETSEQVNQVIASGAIAVTTSNKHLWEGHHHHHH | soluble |
| MSLELVSFVKSHIDQAVYFSTITSNPIEFNLPESLSLDTTDIENDIKTSCDEIFYSTGSYIPPMLNTLEQHLNLRIEYFNNLIEFTKINFNYKISPTVKLYLIEKISILKCCLALFKYISDKAILSNIWRDLVLNSFNDSSLEEFVLGKLDEFPRLFTIFLNDLSAKIVGFNDVEEKVKIVDLLITCVYDAVLENCEKSIRYDALQLDPLELDNKPMWFTNLTNIKAMNNIFFSFIFPDNDLSVENKQRLLTVVKLLYYVINQNMIWHKSMKQIETEEYKEVEALYNDNHANWIHVLCNIGVHEEALQICEFYHDLGGLVEILEKLDFEISRELYDQYFKMFGYEFATILFEYYINAKDLKALFFKFPNHHDLLNKFLLSSPPKYYKYAWIQEIIDNDYRKASDILTTLSVGEAGDGCEISERQLHLNIAKLSGLVDENFDANQMIEIQRDIDTIDHQTRIKKLLEEDPTGISMNQAFANNEFGEKFQETKYCIQNDKSINIKYIIDMLSMMDSVENLYEALKLTCIYRHSLGYEVSKYFQQSIWRRCIIEESKDGVIQLEGENSKIYQLLVKYFEGKLYEYDCKLPFVSFLMDRIGISMNFLSIIYGNDNNVLVSISDSIEREYHDLIRIGDTLESQLSTIIGSANEGHHHHHH | not soluble |
| MSLENHWYEVKQTQSEGFFKDLNGSRTKESISYFPKIYYRMKDGLLSIRVQISLGKYQDQLLKLEKKLESGLYCELVEKELKDSYVDYTLLYDMIANRIGIEEAVVENGALRLMKNQVWAYDFLPHMLIAGGTGGGKTYFLLTIIEALLKSDAELFILDPKNADLADLGTIMTHVYSQKEQISACVEDFYERMMVRSRLMKEMPNYKTGENYAYLGLSPNFLVFDEYVAYMEMLTTKESAVILNKLKQIVMLGRQSGFFLILACQRPDAKYLGDGIRDQFNFRVALGRMSELGYSMMFGEVDKIFFMKQIKGRGYVDTGGGVVSEFYTPLVPKGYDFLESTKTIVQNNINEGHHHHHH | soluble |
| MSLENPTSIQIWHYYNGQQKMAFDKLVKEFNDTVGAEKGIIVEAFSQGNVVDLSEKVLDSANKKVGSEDVPNIFAAYSDTAYEMDKLGLLVDMDKYISKEELNEYIDEYVEEGRINSKDEFKLFPIAKSTEILMLNKTDWDKFAKATNSNINDIKTIEGLVETSKKYYEWTDSLTKEPNDGKAFFGRDALANYIIIGSKQLGVEIFSVKDGKVTLNIDEKVMKKLWDNFYVPYINGYFASYGKFRSDDAKTGDILALVGSSSGAAYFPDRVMLNDNESYNIETSVFQAPRFKGEGKYAVQQGAGMAVTKSTKEEEYASVEFLKWFTDKEPNIKFSIASGYLPVKKKTNDLDVIKEVMKKDNLSLSDKVEGSIASSIEQINSCNLYTNKAFDGGTKARQILEYSMLDKAKEDSNKINELVKSGTSKKDAVAQFNNDKNFKTWFEIFKAELENAIKEGHHHHHH | soluble |
| MSLENTTQIPESELHNLGLTDEEIQEFNQYLIDESLFQETVETSPIVVSDNEDAAQDPGFGLFTTNPVKHTDEHIGALYFSDLPGISNLTCTANYIGGKFWTTAHHCVEGRSRFVGFIEQSDGQYAGIEHVYTKSSDYDIALIKVGSGIDAEQFSLTRSRPAVGKMLEVVGFAVVNPFSSRATMEVTNSNTVANYPMSNLYYKDVFSAKPAGSFPYVISGGDSGAAVWSGETMYGIASGSNGSTKNLAANVGPHVSWIEQTMQNNSNSSPYEILQAFRGGLATSYPKYNQIRDLVDSSEGHHHHHH | soluble |
